Our source for the IC50 values is patent US11116847B2, “Methylene carbamate linkers for use with targeted-drug conjugates” (Seagen Inc., priority 2013, dated 2021).

Holding throughout (test): In vitro cytotoxic activity of ADCs
What all share (assay type): cell-based

One assay deals with 786-0. The following applies: Table 6; 786-0 CD70+. The method, then:
(§1) The targeting antibody ligands cAC10 and h1F6 are described in U.S. Pat. […] cAC10-1006 and hF16-1006, referenced in the following tables, is the chimeric AC10 antibody and the humanized F16 antibody, respectively, conjugated to monomethyl auristatin E (MMAE) at its N terminus via a carbamate functional group to a val-cit-PABA self-immolative moiety having formula XVIII and was used as a control. The resultant ADCs were tested against multiple cell lines to determine in vitro activity, the results from which are summarized in Tables 5 and 6.

The next assay relates to Caki-1. The conditions noted are these: Table 6; Caki-1 CD70+. The method, then:
as §1

For the next assay, the system named is Karpas 299. The conditions noted are these: Table 6; Karpas 299 CD30+ CD70−. The method, then: as §1
In another assay the test system is L540cy. The following applies: Table 6; L540cy CD30+ CD70 (low). As to the method:
as §1

Marks after values point to notes of the source that are not given here.

B1: h1F6-1.3: h1F6 antibody (targets CD70+ cells) conjugated to auristatin E Drug-Linker compound 1.3 with MAC unit (conjugate, chains of the INN, looked up)
VH: QVQLVQSGAEVKKPGASVKVSCKASGYTFTNYGMNWVRQAPGQGLKWMGWINTYTGEPTYADAFKGRVTMTRDTSISTAYMELSRLRSDDTAVYYCARDYGDYGMDYWGQGTTVTVSS
VL: DIVMTQSPDSLAVSLGERATINCRASKSVSTSGYSFMHWYQQKPGQPPKLLIYLASNLESGVPDRFSGSGSGTDFTLTISSLQAEDVAVYYCQHSREVPWTFGQGTKVEIK
modifications: auristatin E drug-linker 1.3 with MAC unit
notes: h1F6 antibody (targets CD70+ cells) conjugated to auristatin E Drug-Linker compound 1.3 with MAC unit
For B1, the IC50 is reported as >1000** ng/mL in the assay with 786-0, 19 ng/mL in the assay with Caki-1, over 1000 ng/mL with Karpas 299 and >1000* ng/mL in the assay with L540cy.

For orientation: IC50 means the concentration at which inhibition is half-maximal. Read a low IC50 as greater potency in that assay.
